B1: maltose binding protein (MBP)-tagged full-length LIMD1 (natural protein)
chain: not shown
notes: LIMD1, full length; also called MBP-LIMD1; MBP-LIMD1 full-length; source: recombinant, purified (details in Supplemental Experimental Procedures)
B2: MBP-LIMD1 140–166 (AB motif) (domain or fragment, UniProt Q9UGP4 140-166, looked up)
chain: GTRHGSQDCGSRESLATSEMSAFHQPG
notes: source: recombinant, purified (details in Supplemental Experimental Procedures)

Target: T1, purified un-tagged AGO2 (hAGO2) (human, UniProt Q9UKV8 1-859)
T1 construct: AGO2, human, un-tagged; also called un-tagged crystallography grade hAGO2; source: purified, un-tagged, crystallography grade (De and Macrae, 2011)
Test: pull-down; MBP direct binding assay: purified un-tagged hAGO2 with MBP-VO, MBP-LIMD1 or MBP-LIMD1 140-166
Settings: both partners purified

T1 sequence (Q9UKV8 whole entry): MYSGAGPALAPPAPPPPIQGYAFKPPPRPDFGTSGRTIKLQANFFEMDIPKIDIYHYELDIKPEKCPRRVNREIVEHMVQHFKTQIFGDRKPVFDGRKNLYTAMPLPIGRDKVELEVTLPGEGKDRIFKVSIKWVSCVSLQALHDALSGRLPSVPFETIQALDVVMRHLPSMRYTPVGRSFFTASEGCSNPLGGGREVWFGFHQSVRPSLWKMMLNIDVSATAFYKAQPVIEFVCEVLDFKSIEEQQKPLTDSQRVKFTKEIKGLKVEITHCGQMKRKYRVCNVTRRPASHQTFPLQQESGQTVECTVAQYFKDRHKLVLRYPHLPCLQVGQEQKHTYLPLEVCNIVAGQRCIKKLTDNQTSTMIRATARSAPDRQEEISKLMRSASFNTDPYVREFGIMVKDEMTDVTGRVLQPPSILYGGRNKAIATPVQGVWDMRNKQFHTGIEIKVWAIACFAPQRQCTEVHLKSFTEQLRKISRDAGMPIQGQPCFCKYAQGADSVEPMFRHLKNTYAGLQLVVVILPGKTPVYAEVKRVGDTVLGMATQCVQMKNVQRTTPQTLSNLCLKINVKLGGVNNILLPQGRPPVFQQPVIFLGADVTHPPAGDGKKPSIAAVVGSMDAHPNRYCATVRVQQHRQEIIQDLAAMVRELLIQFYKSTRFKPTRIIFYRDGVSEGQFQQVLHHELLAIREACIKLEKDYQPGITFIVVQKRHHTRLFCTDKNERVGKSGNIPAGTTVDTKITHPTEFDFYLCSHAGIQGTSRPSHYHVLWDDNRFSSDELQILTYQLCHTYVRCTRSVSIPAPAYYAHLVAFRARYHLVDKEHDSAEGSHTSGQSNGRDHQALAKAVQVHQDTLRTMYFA

Binder | binding result
B1 | binds
B2 | binds

Source: publication PMC5507773, “Argonaute Utilization for miRNA Silencing Is Determined by Phosphorylation-Dependent Recruitment of LIM-Domain-Containing Proteins” (Cell Reports, 2017)
